# Data taken from patent US6087166.
# Legend:
# Test in all cases: cell_activity
# [1] = tested on: TetR-FG (tTA7) (/ HSV fusion); conditions: relative to tTA; -Tc 88, +Tc 24
# [2] = tested on: TetR-FGY (tTA5) (/ HSV fusion); conditions: relative to tTA; -Tc 12080, +Tc 16
# [3] = tested on: TetR-FFFF (tTA1) (/ HSV fusion); conditions: relative to tTA; -Tc 607264, +Tc 33
# [4] = tested on: TetR-VP16 (tTA) (/ HSV fusion); conditions: luciferase -Tc 265410, +Tc 20
# [5] = tested on: TetR-FFF (tTA2) (/ HSV fusion); conditions: relative to tTA; -Tc 259556, +Tc 33
# [6] = tested on: TetR-GF (tTA6) (/ HSV fusion); conditions: relative to tTA; -Tc 1500, +Tc 28
# [7] = tested on: TetR-GFY (tTA4) (/ HSV fusion); conditions: relative to tTA; -Tc 37217, +Tc 25
# [8] = tested on: TetR-FF (tTA3) (/ HSV fusion); conditions: relative to tTA; -Tc 102828, +Tc 27
substance,measurement,setting,value
"PhCMV*-1 promoter (tet operators, luciferase reporter in HeLa X1/6)",activity,[1],0.03%
same,activity,[2],4.6%
same,activity,[3],230%
same,activity,[4],100%
same,activity,[5],98%
same,activity,[6],0.6%
same,activity,[7],14%
same,activity,[8],39%
